From publication PMC6379669 (Nucleic Acids Research, 2018)

B1: human PRDM3 peptide (residues 1–12) (peptide)
peptide: MRSKGRARKLAT
B2: human PRDM16 peptide (residues 1–12) (peptide)
peptide: MRSKARARKLAK

Target: full-length human RBBP4 (residues 1–425), recombinant (human, UniProt Q09028 1-425)
Assay: ITC

Sequence of full-length human RBBP4 (residues 1–425), recombinant (Q09028 whole entry, the tested form may be a part): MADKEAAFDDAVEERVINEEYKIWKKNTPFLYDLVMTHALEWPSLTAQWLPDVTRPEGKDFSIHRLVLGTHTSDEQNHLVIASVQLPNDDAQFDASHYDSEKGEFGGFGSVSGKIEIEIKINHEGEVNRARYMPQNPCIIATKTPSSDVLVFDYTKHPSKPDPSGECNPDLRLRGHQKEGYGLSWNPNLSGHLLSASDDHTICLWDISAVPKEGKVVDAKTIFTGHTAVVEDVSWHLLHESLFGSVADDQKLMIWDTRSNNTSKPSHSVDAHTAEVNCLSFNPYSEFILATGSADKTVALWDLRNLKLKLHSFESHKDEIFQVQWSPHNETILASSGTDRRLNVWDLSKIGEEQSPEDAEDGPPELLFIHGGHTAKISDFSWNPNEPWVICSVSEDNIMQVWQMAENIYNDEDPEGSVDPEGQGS

Row | Binder | Kd | stoichiometry N
1 | B1 | 2.96 µM | 1
2 | B2 | 3.15 µM | 1
